Data reported in patent US6465228B1, “Levodione reductase” (Roche Vitamins, Inc., priority 1999, dated 2002).

Columns and labels:
[1] = substrate: C[C@@H]1CC(=O)CC(C)(C)C1=O; assay: Michaelis constant (Km) and maximum velocity (Vmax); type: biochemical, Corynebacterium aquaticum AKU611; conditions: other: compound as substrate; pH 7.0; 37.0 °C
Protocol: (§1) A basal reaction mixture having a total volume of 500 μl includes 100 μl of 1 M potassium phosphate buffer (pH 7.0), 20 μl of 8 mM NADH in 0.2 mM KOH, 10-40 μl of the enzyme solution (i.e., levodione reductase), and water up to a total of 500 μl . This reaction mixture was incubated for 1 minute at 37 ° C. Then, 2 μl of 0.5 M levodione solution were added to give a final concentration of 2 mM, and the whole mixture was incubated for 1 minute at 37 ° C. The levodione reductase enzyme activity was monitored with the decrease of the absorbance of NADH at 340 nm.
(§2) The Km and Vmax values of the enzyme were measured using levodione and actinol as the substrates. The basic enzyme assay method is the same as described under 1, but the substrate and the enzyme concentrations were varied.
(§3) The Km and Vmax values were calculated on the basis of the known Michaelis-Menten equation. Km is the concentration of the substrate that gives 50% of the Vmax of the enzyme reaction.

[2] = substrate: C[C@@H]1C[C@@H](O)CC(C)(C)C1=O; assay: as above; type: biochemical, Corynebacterium aquaticum AKU611; conditions: other: compound as substrate; pH 7.0; 37.0 °C
Protocol: as §1, §2, §3

B1: levodione reductase (Leifsonia aquatica) (protein)
chain: MTATSSPTTRFTDRVVLITGGGSGLGRATAVRLAAEGAKLSLVDVSSEGLEASKAAVLETAPDAEVLTTVADVSDEAQVEAYVTATTERFGRIDGFFNNAGIEGKQNPTESFTAAEFDKVVSINLRGVFLGLEKVLKIMREQGSGMVVNTASVGGIRGIGNQSGYAAAKHGVVGLTRNSAVEYGRYGIRINAIAPGAIWTPMVENSMKQLDPENPRKAAEEFIQVNPSKRYGEAPEIAAVVAFLLSDDASYVNATVVPIDGGQSAAY
notes: The LR is isolated and purified from the cell-free extract of disrupted cells; made in house; host or cells: Corynebacterium aquaticum AKU611 (FERM BP-6448); This is the natural producer and there was no recombinant expression; The enzyme was purified by ammonium sulfate precipitation and DEAE-Sephacel, alkyl Superose and MONO Q chromatography
For B1, the Km [1] was 8.5 mM, the Vmax [1] was 101.26 unit/mg and the Km [2] was 1.36 mM. The Vmax [2] was 15.91 unit/mg.
